Assay results as given in patent US20250195658A1 (ST JUDE CHILDREN S RESEARCH HOSPITAL, published 2025).
No end group written: not given here. *: point of attachment. Biotin = O=C1N[C@H]2[C@H](CS[C@H]2CCCCC(=O)*)N1; Ahx = NCCCCCC(=O)O

T1: Recombinant Human IL3RA protein conjugated to APC (Creative BioMart, CAT #IL3RA-3248HA) (human, UniProt P26951 19-305, limits assumed, conjugated to APC)
T1 construct: also called recombinant CD123 protein; Recombinant CD123
T1 sequence (looked up): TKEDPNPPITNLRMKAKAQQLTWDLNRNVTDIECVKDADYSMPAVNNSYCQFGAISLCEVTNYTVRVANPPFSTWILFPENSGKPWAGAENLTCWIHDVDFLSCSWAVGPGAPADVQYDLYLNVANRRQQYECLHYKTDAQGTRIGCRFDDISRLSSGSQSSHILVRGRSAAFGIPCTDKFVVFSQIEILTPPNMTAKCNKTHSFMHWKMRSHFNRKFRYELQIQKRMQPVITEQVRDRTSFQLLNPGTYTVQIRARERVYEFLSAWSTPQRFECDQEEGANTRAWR


How the values were obtained:
[1] = target: T1, Recombinant Human IL3RA protein …; assay: flow cytometry of CAR T cells stained with APC-conjugated recombinant human IL3RA (FIG. 2B)
Method: (§1) Flow cytometric analysis. Cells were stained with fluorochrome-conjugated primary antibodies for 30 min at room temperature and washed with FACS buffer (5% FBS in 1×PBS) prior to analysis. Cell surface GRP78 was detected by a GRP78-specific peptide with an N-terminal Biotin tag (Biotin-Ahx-[…]; SEQ ID NO: 126) was obtained from Genscript (Piscataway, NJ) in combination with Streptavidin PE (BioLegend, San Diego, CA. CCAT #405204) using a 2-step staining protocol. Cells were incubated with GRP78 peptide for 30 minutes at room temperature, protected from light. Cells were washed twice prior to staining with additional antibodies. Recombinant CD123 Recombinant Human IL3RA protein conjugated to APC (Creative BioMart, CAT #IL3RA-3248HA) was used to detect CD123 scFv binding. The following antibodies were purchased from BD Biosciences: CCR7 Pacific Blue (BD Pharmigen, Clone G043H7 CAT #353210), CD45RO PerCP-Cy5.5 (BD Pharmigen, Clone UCHL1, CAT #560607), CD123 APC (BD Pharmigen, Clone 7G3, CAT #560087), CD3 BV421 (BD Horizon, Clone SK7, CAT #563797), CD3 BV786 (BD Horizon, Clone SK7, CAT #563800), CD19 PE-Cy7 (BD Pharmigen, Clone HIB19, CAT #560728), CD20 BV650 (BD Horizon, Clone 2H7, CAT #563780). […]

[2] = target: T2, cell surface glucose-regulated-protein 78 (GRP78) (UniProt P11021 19-654, limits assumed); assay: flow cytometry on cell lines, 2-step staining with Streptavidin PE
T2 construct: whole, on cells; also called GRP78 antigen; HSPA5
T2 sequence (P11021 19-654 limits assumed): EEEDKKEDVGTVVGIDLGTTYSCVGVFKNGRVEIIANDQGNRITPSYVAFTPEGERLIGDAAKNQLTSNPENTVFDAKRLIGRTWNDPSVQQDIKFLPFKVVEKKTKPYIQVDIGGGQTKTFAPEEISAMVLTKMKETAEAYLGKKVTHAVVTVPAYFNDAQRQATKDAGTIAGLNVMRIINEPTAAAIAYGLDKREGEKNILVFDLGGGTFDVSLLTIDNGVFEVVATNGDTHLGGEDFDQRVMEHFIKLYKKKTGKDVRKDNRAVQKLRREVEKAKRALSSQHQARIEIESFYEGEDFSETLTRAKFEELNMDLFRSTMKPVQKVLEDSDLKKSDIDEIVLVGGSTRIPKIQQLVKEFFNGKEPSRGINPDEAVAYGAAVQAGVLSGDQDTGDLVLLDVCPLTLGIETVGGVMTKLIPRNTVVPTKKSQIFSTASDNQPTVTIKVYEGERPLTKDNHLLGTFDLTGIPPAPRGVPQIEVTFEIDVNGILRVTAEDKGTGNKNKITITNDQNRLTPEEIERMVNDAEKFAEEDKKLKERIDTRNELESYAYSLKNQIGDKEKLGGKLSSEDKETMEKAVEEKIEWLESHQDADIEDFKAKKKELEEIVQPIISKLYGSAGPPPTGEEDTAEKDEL
Method: as §1

% of transduced T cells positive for recombinant CD123 protein [1] [%] | binding result [2] | Binder
83.6 | – | GRP78-GPcPcPc-CD123-CAR (other) CTVALPGGYVRVCEFAGSGGSGGSGGSPVPSTPPTNSSSTPPTPSPSPVPSTPPTNSSSTPPTPSPSPVPSTPPTNSSSTPPTPSPSASAAAQVQLQQPGAELVRPGASVKLSCKASGYTFTSYWMNWVKQRPDQGLEWIGRIDPYDSETHYNQKFKDKAILTVDKSSSTAYMQLSSLTSEDSAVYYCARGNWDDYWGQGTTLTVSSGGGGSGGGGSGGGGSDVQITQSPSYLAASPGETITINCRASKSISKDLAWYQEKPGKTNKLLIYSGSTLQSGIPSRFSGSGSGTDFTLTISSLEPEDFAMYYCQQHNKYPYTFGGGTKLEIKSIEVMYPPPYLDNEKSNGTIIHVKGKHLCPSPLFPGPSKPFWVLVVVGGVLACYSLLVTVAFIIFWVRSKRSRLLHSDYMNMTPRRPGPTRKHYQPYAPPRDFAAYRSRVKFSRSADAPAYQQGQNQLYNELNLGRREEYDVLDKRRGRDPEMGGKPRRKNPQEGLYNELQKDKMAEAYSEIGMKGERRRGKGHDGLYQGLSTATKDTYDALHMQALPPR
– | binds | {Biotin-Ahx}-CTVALPGGYVRVC (cysteine pairing not given here, Obtained from Genscript; Detected with Streptavidin PE in a 2-step staining; also called GRP78-biotin; GRP78 peptide) [GRP78-specific peptide with an N-terminal Biotin tag (Biotin-Ahx-CTVALPGGYVRVC)]
87.5 | – | GRP78-G4S3-CD123-CAR (other, Residues from 510 on (spacer RSGVDSG, T2A, tCD19) are also left out; also called 78.(G4S)3.123; G4S2) CTVALPGGYVRVCEFGGGGSGGGGSGGGGSAAAQVQLQQPGAELVRPGASVKLSCKASGYTFTSYWMNWVKQRPDQGLEWIGRIDPYDSETHYNQKFKDKAILTVDKSSSTAYMQLSSLTSEDSAVYYCARGNWDDYWGQGTTLTVSSGGGGSGGGGSGGGGSDVQITQSPSYLAASPGETITINCRASKSISKDLAWYQEKPGKTNKLLIYSGSTLQSGIPSRFSGSGSGTDFTLTISSLEPEDFAMYYCQQHNKYPYTFGGGTKLEIKSIEVMYPPPYLDNEKSNGTIIHVKGKHLCPSPLFPGPSKPFWVLVVVGGVLACYSLLVTVAFIIFWVRSKRSRLLHSDYMNMTPRRPGPTRKHYQPYAPPRDFAAYRSRVKFSRSADAPAYQQGQNQLYNELNLGRREEYDVLDKRRGRDPEMGGKPRRKNPQEGLYNELQKDKMAEAYSEIGMKGERRRGKGHDGLYQGLSTATKDTYDALHMQALPPR
